Data as given in patent US20240117066A1 (Memorial Sloan Kettering, published 2024).

B1: 6C8 antibody (antibody, V domains shown)
VH: EVQLVESGGGLVQPGGSLKISCAASGFTFTNYGMSWVRQTPDKRLELVATTNSNGGATYYPDSVKGRFTISRDNAKNTLYLQMSSLKSEDTAMYFCTRDRDYYGGSMDYWGQGTSVTVSS
VL: DIVMSQSPSSLAVSVGERVSMSCKSSQSLLYSSDQKNYLAWYQQKPGQSPELLIYWASTRESGVPDRFTGSGSGTDFTLTISSVKAEDLAIYYCQQYYSYPFTFGSGTKLEIK
B2: 14C5 antibody (antibody, V domains shown)
VH: QVQLKESGPGLVAPSQSLSITCTVSGFSLTSYGVHWVRQPPGKGLEWLGVLWAGGSTDYNSALMSRLSISKDNSKSQVFLKMNSLQTDDTAMYYCARGGLRQVFAYWGQGTLVTVSA
VL: DVLMTQTPLSLPVSLGDQASISCRSSQSIVYSNGNTYLEWYLQKPGQSPKLLIYKVSNRFSGVPDRFSGSGSGTDFTLKISRVEAEDLGVYYCFQGSHVPYTFGGGTKLEMK
B3: 11E10 antibody (antibody, V domains shown)
VH: QVQLQQSGPELVKPGASVKMSCKTSGYTFTDYVITWVKQRTGQGLEWIGEIYPRSGNTYYNAKFRGKATLTADKSSNTAYMQLSSLTSEDSAVYFCARGGYYDFDFFAMDYWGQGTSVTVSS
VL: DIVMTQAAPSVPVTPGESVSISCRSSKSLLHSNGNTYLYWFLQRPGQSPQLLIYRMSNLASGVPDRFSGSGSGTAFTLRISRVEAEDVGVYYCMQHLEYPYTFGGGTKLEIK
B4: 8B1 antibody (antibody, V domains shown)
VH: QIQLVQSGPELKKPGETVKISCKASGYTFTNYGMNWVKQAPGKGLKWMGWINTNTGEPTYAEEFKGRFAFSLETSASTAYLQINNLKNEDTATYFCGDYEFAYWGQGTLVTVSA
VL: DIQMTQSPASLSVSVGETVTITCRASENIYSNLAWYQQKQGKSPQLLVYAATNLADGVPSRFSGSGSGTQYSLKINSLQSEDFGSYYCQHFWGTPWTFGGGTKLEIK
B5: 17C9 antibody (antibody, V domains shown)
VH: EVQLVESGGGLVKPGGSLKLSCAASGFTFSSYAMSWVRQSPEKRLEWVAEISSGGTYTYYPDTVTGRFTISRDNAKNTLYLEMSSLRSEDTAMYYCARDDGFYAWFGYWGQGTLVTVSA
VL: not shown

target: T1, recombinant human uPAR protein (Leu23-Arg303) with a C-terminal 6-his tag (human, UniProt Q03405 23-303); experiment: Biacore (SPR), single cycle kinetics
T1 construct: also called CD87
T1 sequence (Q03405 other isoform, or with tags, fused parts or gaps): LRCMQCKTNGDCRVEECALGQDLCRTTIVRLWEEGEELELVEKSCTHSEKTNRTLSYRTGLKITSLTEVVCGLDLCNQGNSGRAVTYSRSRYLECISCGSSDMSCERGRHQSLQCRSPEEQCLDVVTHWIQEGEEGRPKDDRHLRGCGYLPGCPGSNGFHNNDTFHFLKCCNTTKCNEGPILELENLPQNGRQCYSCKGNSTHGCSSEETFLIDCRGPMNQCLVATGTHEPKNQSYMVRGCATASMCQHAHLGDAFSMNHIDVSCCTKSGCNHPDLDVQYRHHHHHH
Procedure: Six clones 8B1, 11E10, 17C9, 19D7, 6C8, and 14C5 were produced. Next, the binding affinities KD of 8B1, 11E10, 17C9, 19D7, 6C8, and 14C5 antibodies were assessed. The KD values were calculated using the Biacore single cycle kinetics analysis.

Row | Kd [nM] | Binder
1 | 6.61 | B1
2 | 42.4 | B2
3 | 95.2 | B3
4 | 3.48 | B4
5 | 18.6 | B5
